# Test results published in the supplement of paper PMC9112550, “Optimization of the antimicrobial peptide Bac7 by deep mutational scanning” (BMC Biology, 2022).
# System: Escherichia coli TOP10
# Experiment: shrunken log2 fold change of peptide-encoding DNA abundance (4.5 h post-induction vs induction); higher = less antimicrobial activity (less host growth inhibition)
# Settings: time post-induction: 4.5 h; library: site-saturation at positions 5, 18, 19, 20
# 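Further: peptides expressed intracellularly from a pBAD plasmid library in pooled LB shake-flask culture, induced with 0.3% L-arabinose, DNA abundance read by NGS, three biological replicates, DESeq2 with apeglm shrinkage.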
row,Sequence,shrunken log2 fold change
1,RRIRKRPPRLPRPRPRPDVYPRP,-0.0383
2,RRIRLRPPRLPRPRPRPLMYPRP,-0.327
3,RRIRDRPPRLPRPRPRPNLYPRP,-0.0872
4,RRIRGRPPRLPRPRPRPATEPRP,0.976
5,RRIRKRPPRLPRPRPRPYNCPRP,0.00529
6,RRIRFRPPRLPRPRPRPSKTPRP,0.0514
7,RRIRTRPPRLPRPRPRPMQNPRP,-0.0815
8,RRIRERPPRLPRPRPRPRCFPRP,-0.128
9,RRIRLRPPRLPRPRPRPKQYPRP,-0.661
10,RRIRERPPRLPRPRPRPADEPRP,-0.032
11,RRIRLRPPRLPRPRPRPDKNPRP,-0.0881
12,RRIRWRPPRLPRPRPRPDAMPRP,0.393
13,RRIRERPPRLPRPRPRPTKPPRP,-0.394
14,RRIRERPPRLPRPRPRPVFEPRP,-0.151
15,RRIRHRPPRLPRPRPRPTWYPRP,-0.674
16,RRIRLRPPRLPRPRPRPFSVPRP,-0.323
17,RRIRARPPRLPRPRPRPNAFPRP,0.424
18,RRIRMRPPRLPRPRPRPQCMPRP,-0.0822
19,RRIRGRPPRLPRPRPRPVPNPRP,0.581
20,RRIRHRPPRLPRPRPRPAKKPRP,0.0694
21,RRIRNRPPRLPRPRPRPGNGPRP,-0.462
22,RRIRARPPRLPRPRPRPMQVPRP,0.277
23,RRIRKRPPRLPRPRPRPADCPRP,0.117
24,RRIRFRPPRLPRPRPRPTAGPRP,0.0761
25,RRIRTRPPRLPRPRPRPFDMPRP,-0.00208

row,Sequence,shrunken log2 fold change
1,RRIRKRPPRLPRPRPRPYEKPRP,-0.0121
2,RRIRKRPPRLPRPRPRPWDIPRP,-0.0322
3,RRIRRRPPRLPRPRPRPEDLPRP,-0.00437
4,RRIRCRPPRLPRPRPRPGSEPRP,0.286
5,RRIRYRPPRLPRPRPRPGQMPRP,-0.553
6,RRIRWRPPRLPRPRPRPFFSPRP,-0.101
7,RRIRKRPPRLPRPRPRPPDNPRP,0.0807
8,RRIRHRPPRLPRPRPRPRDYPRP,0.0554
9,RRIRYRPPRLPRPRPRPTAKPRP,0.0338
10,RRIRFRPPRLPRPRPRPSDSPRP,-0.21
11,RRIRMRPPRLPRPRPRPFMCPRP,-0.171
12,RRIRSRPPRLPRPRPRPIGWPRP,0.142
13,RRIRKRPPRLPRPRPRPMYCPRP,-0.233
14,RRIRDRPPRLPRPRPRPGDRPRP,-0.00192
15,RRIRERPPRLPRPRPRPWSYPRP,0.0168
16,RRIRIRPPRLPRPRPRPQNRPRP,-0.386
17,RRIRVRPPRLPRPRPRPCTAPRP,0.172
18,RRIRWRPPRLPRPRPRPEAIPRP,0.25
19,RRIRFRPPRLPRPRPRPDCQPRP,0.0422
20,RRIRVRPPRLPRPRPRPCGGPRP,-0.0341
21,RRIRRRPPRLPRPRPRPWPNPRP,-0.0193
22,RRIRVRPPRLPRPRPRPAGRPRP,1.22
23,RRIRVRPPRLPRPRPRPDTQPRP,0.0912
24,RRIRQRPPRLPRPRPRPVRYPRP,0.0926
25,RRIRIRPPRLPRPRPRPHFGPRP,-0.00693

row,Sequence,shrunken log2 fold change
1,RRIRNRPPRLPRPRPRPRNSPRP,-0.0392
2,RRIRTRPPRLPRPRPRPYANPRP,-0.00264
3,RRIRNRPPRLPRPRPRPTCLPRP,-0.0993
4,RRIRVRPPRLPRPRPRPPLNPRP,-0.098
5,RRIRFRPPRLPRPRPRPICLPRP,-0.548
6,RRIRFRPPRLPRPRPRPSMIPRP,-0.603
7,RRIRYRPPRLPRPRPRPNSLPRP,-1.11
8,RRIRNRPPRLPRPRPRPGVYPRP,-0.241
9,RRIRYRPPRLPRPRPRPTDFPRP,-0.325
10,RRIRTRPPRLPRPRPRPQVTPRP,0.304
11,RRIRDRPPRLPRPRPRPKKVPRP,0.241
12,RRIRHRPPRLPRPRPRPFLHPRP,-0.449
13,RRIRNRPPRLPRPRPRPVIQPRP,0.0549
14,RRIRSRPPRLPRPRPRPKDGPRP,0.307
15,RRIRQRPPRLPRPRPRPKQPPRP,0.0884
16,RRIRNRPPRLPRPRPRPKWPPRP,0.208
17,RRIRRRPPRLPRPRPRPWIYPRP,-0.118
18,RRIRIRPPRLPRPRPRPGTDPRP,-0.114
19,RRIRWRPPRLPRPRPRPEPDPRP,0.901
20,RRIRTRPPRLPRPRPRPTRWPRP,0.301
21,RRIRDRPPRLPRPRPRPLFMPRP,0.154
22,RRIRYRPPRLPRPRPRPERSPRP,-0.00131
23,RRIRVRPPRLPRPRPRPSQIPRP,-0.206
24,RRIRLRPPRLPRPRPRPRCEPRP,0.194
25,RRIRVRPPRLPRPRPRPRIPPRP,0.183

row,Sequence,shrunken log2 fold change
1,RRIRTRPPRLPRPRPRPNMLPRP,-0.45
2,RRIRFRPPRLPRPRPRPQYGPRP,-0.0328
3,RRIRNRPPRLPRPRPRPFEEPRP,0.0129
4,RRIRCRPPRLPRPRPRPRASPRP,0.282
5,RRIRQRPPRLPRPRPRPWMDPRP,-0.118
6,RRIRHRPPRLPRPRPRPWKLPRP,-0.185
7,RRIRCRPPRLPRPRPRPDGHPRP,-0.00753
8,RRIRTRPPRLPRPRPRPLVFPRP,-0.214
9,RRIRMRPPRLPRPRPRPHVRPRP,0.231
10,RRIRPRPPRLPRPRPRPRNIPRP,-0.222
11,RRIRSRPPRLPRPRPRPWWHPRP,-0.166
12,RRIRARPPRLPRPRPRPSMIPRP,-0.128
13,RRIRYRPPRLPRPRPRPRVPPRP,-0.0432
14,RRIRNRPPRLPRPRPRPNQGPRP,-0.338
15,RRIRHRPPRLPRPRPRPWIDPRP,-0.00448
16,RRIRRRPPRLPRPRPRPQIKPRP,-0.155
17,RRIRPRPPRLPRPRPRPDKPPRP,-0.233
18,RRIRVRPPRLPRPRPRPINEPRP,-0.3
19,RRIRQRPPRLPRPRPRPFWAPRP,0.289
20,RRIRWRPPRLPRPRPRPKQSPRP,0.698
21,RRIRSRPPRLPRPRPRPDPHPRP,-0.151
22,RRIRQRPPRLPRPRPRPEKQPRP,-0.267
23,RRIRIRPPRLPRPRPRPAPDPRP,0.248
24,RRIRYRPPRLPRPRPRPKPKPRP,0.394
25,RRIRQRPPRLPRPRPRPLQLPRP,-0.126

row,Sequence,shrunken log2 fold change
1,RRIRDRPPRLPRPRPRPHPFPRP,0.0528
2,RRIRMRPPRLPRPRPRPLCYPRP,-0.0697
3,RRIRMRPPRLPRPRPRPSGVPRP,0.0246
4,RRIRMRPPRLPRPRPRPSMRPRP,0.429
5,RRIRYRPPRLPRPRPRPMSYPRP,-0.0389
6,RRIRGRPPRLPRPRPRPCGVPRP,0.578
7,RRIRQRPPRLPRPRPRPQPEPRP,-0.0839
8,RRIRCRPPRLPRPRPRPVFHPRP,-0.262
9,RRIRYRPPRLPRPRPRPMPEPRP,0.0501
10,RRIRARPPRLPRPRPRPFFTPRP,0.617
11,RRIRTRPPRLPRPRPRPDVRPRP,-0.31
12,RRIRSRPPRLPRPRPRPRPSPRP,0.439
13,RRIRHRPPRLPRPRPRPVWNPRP,-0.402
14,RRIRYRPPRLPRPRPRPDFQPRP,-0.409
15,RRIRERPPRLPRPRPRPAGTPRP,0.346
16,RRIRIRPPRLPRPRPRPDMKPRP,-0.0106
17,RRIRLRPPRLPRPRPRPEYVPRP,0.102
18,RRIRHRPPRLPRPRPRPLFGPRP,-0.0987
19,RRIRRRPPRLPRPRPRPRIAPRP,0.652
20,RRIRGRPPRLPRPRPRPFSLPRP,-0.693
21,RRIRYRPPRLPRPRPRPSQDPRP,-0.561
22,RRIRKRPPRLPRPRPRPRALPRP,0.396
23,RRIRQRPPRLPRPRPRPFMCPRP,-0.371
24,RRIRCRPPRLPRPRPRPRDYPRP,0.00558
25,RRIRDRPPRLPRPRPRPECFPRP,1.46
